Experimental data reported in article PMC8632965.

Biological target: T1, extracellular portion of CD98 (212-630 of CD98hc)
T1 chain: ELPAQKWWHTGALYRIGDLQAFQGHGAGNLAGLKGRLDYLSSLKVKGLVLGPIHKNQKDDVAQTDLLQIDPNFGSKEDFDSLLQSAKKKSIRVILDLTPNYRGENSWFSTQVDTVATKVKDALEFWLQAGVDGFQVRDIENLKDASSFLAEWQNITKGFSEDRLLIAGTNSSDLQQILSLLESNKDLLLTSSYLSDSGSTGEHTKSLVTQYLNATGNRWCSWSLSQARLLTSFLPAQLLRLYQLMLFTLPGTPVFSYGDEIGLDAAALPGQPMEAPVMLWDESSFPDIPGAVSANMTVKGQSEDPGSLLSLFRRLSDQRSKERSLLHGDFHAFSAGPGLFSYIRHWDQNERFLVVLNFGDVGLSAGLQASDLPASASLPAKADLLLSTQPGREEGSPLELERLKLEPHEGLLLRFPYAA
Test: SPR
Details: chain shown with the change;; parent: est. 24; read off a plot

- response: 3.5 RU
B1: domain 1 of CD147, P35613-2 K63A (protein)
chain: AAGTVFTTVEDLGSKILLTCSLNDSATEVTGHRWLKGGVVLAEDALPGQKTEFKVDSDDQWGEYSCVFLPEPMGTANIQLHGPPRVKAVKSSEHINEGETAMLVCKSESVPPVTDWAWYKITDSEDKALMNGSESRFFVSSSQGRSELHIENLNMEADPGQYRCNGTSSKGSDQAIITLRVRSH
